Tested on: Escherichia coli TOP10
Test: shrunken log2 fold change of peptide-encoding DNA abundance (4.5 h post-induction vs induction); higher = less antimicrobial activity (less host growth inhibition)
Details: time post-induction: 4.5 h; library: site-saturation at positions 5, 18, 19, 20
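Also: peptides expressed intracellularly from a pBAD plasmid library in pooled LB shake-flask culture, induced with 0.3% L-arabinose, DNA abundance read by NGS, three biological replicates, DESeq2 with apeglm shrinkage.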

For RRIRRRPPRLPRPRPRPWMHPRP, the “shrunken log2 fold change” value was 0.103.

For RRIRRRPPRLPRPRPRPWMMPRP, the “shrunken log2 fold change” value was 0.0519.

With RRIRRRPPRLPRPRPRPWNNPRP the “shrunken log2 fold change” value was -0.173.

With RRIRRRPPRLPRPRPRPWPDPRP the “shrunken log2 fold change” value was 0.0719.

RRIRRRPPRLPRPRPRPWQNPRP was tested, and the “shrunken log2 fold change” value was -0.111.

For RRIRRRPPRLPRPRPRPWWIPRP, the “shrunken log2 fold change” value was 0.249.

For RRIRRRPPRLPRPRPRPYCKPRP, the “shrunken log2 fold change” value was -0.24.

In the case of RRIRRRPPRLPRPRPRPYCQPRP, the “shrunken log2 fold change” value is reported as -0.664.

For RRIRRRPPRLPRPRPRPYDFPRP, the “shrunken log2 fold change” value was -0.296.

In the case of RRIRRRPPRLPRPRPRPYENPRP, the “shrunken log2 fold change” value is reported as -0.374.

RRIRRRPPRLPRPRPRPYERPRP was tested, and the “shrunken log2 fold change” value was -0.18.

With RRIRRRPPRLPRPRPRPYGAPRP the “shrunken log2 fold change” value was -0.171.

In the case of RRIRRRPPRLPRPRPRPYIAPRP, the “shrunken log2 fold change” value is reported as -0.54.

For RRIRRRPPRLPRPRPRPYICPRP, the “shrunken log2 fold change” value was -0.452.

With RRIRRRPPRLPRPRPRPYITPRP the “shrunken log2 fold change” value was -0.523.

RRIRRRPPRLPRPRPRPYNEPRP was tested, and the “shrunken log2 fold change” value was -0.103.

With RRIRRRPPRLPRPRPRPYPEPRP the “shrunken log2 fold change” value was 0.00427.

With RRIRRRPPRLPRPRPRPYQEPRP the “shrunken log2 fold change” value was -0.259.

For RRIRRRPPRLPRPRPRPYQHPRP, the “shrunken log2 fold change” value was -0.983.

For RRIRRRPPRLPRPRPRPYQLPRP, the “shrunken log2 fold change” value was -0.234.

For RRIRRRPPRLPRPRPRPYRKPRP, the “shrunken log2 fold change” value was 0.0779.

RRIRRRPPRLPRPRPRPYSEPRP was tested, and the “shrunken log2 fold change” value was -0.154.

For RRIRRRPPRLPRPRPRPYTIPRP, the “shrunken log2 fold change” value was -0.566.

For RRIRRRPPRLPRPRPRPYTMPRP, the “shrunken log2 fold change” value was -0.255.

With RRIRRRPPRLPRPRPRPYVIPRP the “shrunken log2 fold change” value was 0.0475.

RRIRRRPPRLPRPRPRPYWKPRP was tested, and the “shrunken log2 fold change” value was 0.0393.

In the case of RRIRSRPPRLPRPRPRPAAIPRP, the “shrunken log2 fold change” value is reported as 2.36.

For RRIRSRPPRLPRPRPRPAASPRP, the “shrunken log2 fold change” value was -0.0449.

For RRIRSRPPRLPRPRPRPAEAPRP, the “shrunken log2 fold change” value was 0.429.

With RRIRSRPPRLPRPRPRPAELPRP the “shrunken log2 fold change” value was 0.0682.

With RRIRSRPPRLPRPRPRPAEVPRP the “shrunken log2 fold change” value was -0.0708.

RRIRSRPPRLPRPRPRPAFQPRP was tested, and the “shrunken log2 fold change” value was -0.0696.

In the case of RRIRSRPPRLPRPRPRPAFRPRP, the “shrunken log2 fold change” value is reported as 0.452.

In the case of RRIRSRPPRLPRPRPRPAGGPRP, the “shrunken log2 fold change” value is reported as 0.529.

In the case of RRIRSRPPRLPRPRPRPAHSPRP, the “shrunken log2 fold change” value is reported as -0.332.

For RRIRSRPPRLPRPRPRPAIMPRP, the “shrunken log2 fold change” value was -0.152.

RRIRSRPPRLPRPRPRPAMGPRP was tested, and the “shrunken log2 fold change” value was 0.313.

For RRIRSRPPRLPRPRPRPANFPRP, the “shrunken log2 fold change” value was 0.0977.

In the case of RRIRSRPPRLPRPRPRPAQTPRP, the “shrunken log2 fold change” value is reported as 0.0615.

RRIRSRPPRLPRPRPRPARNPRP was tested, and the “shrunken log2 fold change” value was 0.611.

For RRIRSRPPRLPRPRPRPASKPRP, the “shrunken log2 fold change” value was 0.019.

With RRIRSRPPRLPRPRPRPASSPRP the “shrunken log2 fold change” value was -0.201.

RRIRSRPPRLPRPRPRPATFPRP was tested, and the “shrunken log2 fold change” value was -0.366.

With RRIRSRPPRLPRPRPRPAVAPRP the “shrunken log2 fold change” value was 0.0474.

In the case of RRIRSRPPRLPRPRPRPAVLPRP, the “shrunken log2 fold change” value is reported as -0.355.

In the case of RRIRSRPPRLPRPRPRPAWDPRP, the “shrunken log2 fold change” value is reported as 0.281.

In the case of RRIRSRPPRLPRPRPRPAWVPRP, the “shrunken log2 fold change” value is reported as 0.441.

RRIRSRPPRLPRPRPRPAYRPRP was tested, and the “shrunken log2 fold change” value was -0.154.

For RRIRSRPPRLPRPRPRPCAFPRP, the “shrunken log2 fold change” value was -0.236.

For RRIRSRPPRLPRPRPRPCANPRP, the “shrunken log2 fold change” value was -0.113.

With RRIRSRPPRLPRPRPRPCCEPRP the “shrunken log2 fold change” value was -0.22.

RRIRSRPPRLPRPRPRPCEAPRP was tested, and the “shrunken log2 fold change” value was 0.389.

In the case of RRIRSRPPRLPRPRPRPCFNPRP, the “shrunken log2 fold change” value is reported as -0.828.

RRIRSRPPRLPRPRPRPCGKPRP was tested, and the “shrunken log2 fold change” value was 0.027.

For RRIRSRPPRLPRPRPRPCGSPRP, the “shrunken log2 fold change” value was 0.102.

In the case of RRIRSRPPRLPRPRPRPCGVPRP, the “shrunken log2 fold change” value is reported as 0.0491.

With RRIRSRPPRLPRPRPRPCIQPRP the “shrunken log2 fold change” value was -0.175.

RRIRSRPPRLPRPRPRPCKLPRP was tested, and the “shrunken log2 fold change” value was -0.218.

With RRIRSRPPRLPRPRPRPCKRPRP the “shrunken log2 fold change” value was -0.326.

RRIRSRPPRLPRPRPRPCLVPRP was tested, and the “shrunken log2 fold change” value was -0.379.

With RRIRSRPPRLPRPRPRPCMIPRP the “shrunken log2 fold change” value was -0.389.

RRIRSRPPRLPRPRPRPCMYPRP was tested, and the “shrunken log2 fold change” value was -0.0328.

For RRIRSRPPRLPRPRPRPCNPPRP, the “shrunken log2 fold change” value was -0.212.

For RRIRSRPPRLPRPRPRPCQLPRP, the “shrunken log2 fold change” value was -0.163.

For RRIRSRPPRLPRPRPRPCSSPRP, the “shrunken log2 fold change” value was -0.134.

RRIRSRPPRLPRPRPRPCTDPRP was tested, and the “shrunken log2 fold change” value was -0.11.

In the case of RRIRSRPPRLPRPRPRPCWAPRP, the “shrunken log2 fold change” value is reported as 0.143.

With RRIRSRPPRLPRPRPRPCWGPRP the “shrunken log2 fold change” value was 0.109.

RRIRSRPPRLPRPRPRPDCIPRP was tested, and the “shrunken log2 fold change” value was -0.163.

For RRIRSRPPRLPRPRPRPDCLPRP, the “shrunken log2 fold change” value was -0.11.

With RRIRSRPPRLPRPRPRPDDVPRP the “shrunken log2 fold change” value was 0.14.

With RRIRSRPPRLPRPRPRPDEDPRP the “shrunken log2 fold change” value was -0.00181.

For RRIRSRPPRLPRPRPRPDEGPRP, the “shrunken log2 fold change” value was 0.0432.

With RRIRSRPPRLPRPRPRPDEWPRP the “shrunken log2 fold change” value was -0.00195.

In the case of RRIRSRPPRLPRPRPRPDFFPRP, the “shrunken log2 fold change” value is reported as -0.0547.

With RRIRSRPPRLPRPRPRPDHWPRP the “shrunken log2 fold change” value was -0.0678.

For RRIRSRPPRLPRPRPRPDIDPRP, the “shrunken log2 fold change” value was -0.15.

RRIRSRPPRLPRPRPRPDIFPRP was tested, and the “shrunken log2 fold change” value was -0.135.

RRIRSRPPRLPRPRPRPDKDPRP was tested, and the “shrunken log2 fold change” value was -0.102.

With RRIRSRPPRLPRPRPRPDLHPRP the “shrunken log2 fold change” value was -0.0732.

With RRIRSRPPRLPRPRPRPDLKPRP the “shrunken log2 fold change” value was -0.00372.

For RRIRSRPPRLPRPRPRPDNCPRP, the “shrunken log2 fold change” value was -0.103.

With RRIRSRPPRLPRPRPRPDNFPRP the “shrunken log2 fold change” value was -0.299.

With RRIRSRPPRLPRPRPRPDNMPRP the “shrunken log2 fold change” value was -0.208.

For RRIRSRPPRLPRPRPRPDNQPRP, the “shrunken log2 fold change” value was -0.568.

For RRIRSRPPRLPRPRPRPDNSPRP, the “shrunken log2 fold change” value was -0.13.

In the case of RRIRSRPPRLPRPRPRPDPMPRP, the “shrunken log2 fold change” value is reported as -0.0673.

In the case of RRIRSRPPRLPRPRPRPDPNPRP, the “shrunken log2 fold change” value is reported as -0.000549.

In the case of RRIRSRPPRLPRPRPRPDPWPRP, the “shrunken log2 fold change” value is reported as 0.0152.

With RRIRSRPPRLPRPRPRPDQHPRP the “shrunken log2 fold change” value was -0.0484.

With RRIRSRPPRLPRPRPRPDRAPRP the “shrunken log2 fold change” value was 0.611.

With RRIRSRPPRLPRPRPRPDSFPRP the “shrunken log2 fold change” value was -0.0457.

RRIRSRPPRLPRPRPRPDSMPRP was tested, and the “shrunken log2 fold change” value was -0.339.

With RRIRSRPPRLPRPRPRPDSSPRP the “shrunken log2 fold change” value was -0.418.

RRIRSRPPRLPRPRPRPDVVPRP was tested, and the “shrunken log2 fold change” value was -0.448.

With RRIRSRPPRLPRPRPRPDWPPRP the “shrunken log2 fold change” value was 0.149.

With RRIRSRPPRLPRPRPRPDYIPRP the “shrunken log2 fold change” value was -0.443.

RRIRSRPPRLPRPRPRPEAHPRP was tested, and the “shrunken log2 fold change” value was 0.16.

With RRIRSRPPRLPRPRPRPEATPRP the “shrunken log2 fold change” value was 0.72.

For RRIRSRPPRLPRPRPRPECGPRP, the “shrunken log2 fold change” value was 0.646.

With RRIRSRPPRLPRPRPRPECIPRP the “shrunken log2 fold change” value was 0.00247.

RRIRSRPPRLPRPRPRPECTPRP was tested, and the “shrunken log2 fold change” value was 0.169.

For RRIRSRPPRLPRPRPRPEEPPRP, the “shrunken log2 fold change” value was 0.729.

RRIRSRPPRLPRPRPRPEEWPRP was tested, and the “shrunken log2 fold change” value was -0.0481.

For RRIRSRPPRLPRPRPRPEFCPRP, the “shrunken log2 fold change” value was 0.132.

In the case of RRIRSRPPRLPRPRPRPEFEPRP, the “shrunken log2 fold change” value is reported as 0.731.

For RRIRSRPPRLPRPRPRPEFWPRP, the “shrunken log2 fold change” value was 0.281.

RRIRSRPPRLPRPRPRPEGQPRP was tested, and the “shrunken log2 fold change” value was 0.193.

RRIRSRPPRLPRPRPRPEHSPRP was tested, and the “shrunken log2 fold change” value was -0.182.
